Values of other authors in patent US12453725B2, “Treatment of inflammatory disease” (Celleron Therapeutics Limited, priority 2019, dated 2025).

What was measured:
[1] = human, in vivo, cited from earlier work
[2] = human, in vivo; cited from earlier work
[3] = in vivo; cited from earlier work

| Substance | incidence of grade 3/4 colitis ([1]; 5 mg/kg) [%] | enterocolitis (grade 3 or 4 symptoms and/or biopsy proven) [1] [%] | grade 3/4 diarrhoea, patients [1] | abnormal liver tests [2] | diarrhoea or colitis [2] | disorders of hormone-producing glands [2] | immune-related colitis, patients [2] [%] | kidney inflammation [2] | lung inflammation [2] | rash [2] | colitis, listed frequency of GI side effect [3] |
| --- | --- | --- | --- | --- | --- | --- | --- | --- | --- | --- | --- |
| ipilimumab: approved checkpoint inhibitor monoclonal antibody targeting CTLA-4 | 13 | 21 | 10% | – | – | – | – | – | – | – | – |
| nivolumab: human monoclonal antibody that blocks the interaction between PD-1 and its ligands, PD-L1 and PD-L2; IgG4 kappa immunoglobulin | – | – | 1%-2% | clinical trials, between 7 patients in 100 had abnormal liver | nivolumab clinical trials, 13 patients in 100 developed | trials, 10 patients in 100 developed disorders of hormone- | 13 | nivolumab clinical trials, 3 patients in 100 developed kidney | clinical trials, 3 patients in 100 developed lung | between 26 patients in 100 developed rash. Signs or | – |
| pembrolizumab: humanized IgG4 monoclonal antibody that binds the programmed cell death-1 receptor | – | – | 1%-2% | – | – | – | – | – | – | – | common |
